Data as given in paper PMC10786891, “Massively parallel profiling of RNA-targeting CRISPR-Cas13d”.
Positions count from the first letter of the chain named. Names and notes keep the numbering of the source.

T1: EsCas13d, nuclease-dead (Eubacterium siraeum, UniProt B0MS50, R295A;H300A;R849A;H854A)
T1 sequence: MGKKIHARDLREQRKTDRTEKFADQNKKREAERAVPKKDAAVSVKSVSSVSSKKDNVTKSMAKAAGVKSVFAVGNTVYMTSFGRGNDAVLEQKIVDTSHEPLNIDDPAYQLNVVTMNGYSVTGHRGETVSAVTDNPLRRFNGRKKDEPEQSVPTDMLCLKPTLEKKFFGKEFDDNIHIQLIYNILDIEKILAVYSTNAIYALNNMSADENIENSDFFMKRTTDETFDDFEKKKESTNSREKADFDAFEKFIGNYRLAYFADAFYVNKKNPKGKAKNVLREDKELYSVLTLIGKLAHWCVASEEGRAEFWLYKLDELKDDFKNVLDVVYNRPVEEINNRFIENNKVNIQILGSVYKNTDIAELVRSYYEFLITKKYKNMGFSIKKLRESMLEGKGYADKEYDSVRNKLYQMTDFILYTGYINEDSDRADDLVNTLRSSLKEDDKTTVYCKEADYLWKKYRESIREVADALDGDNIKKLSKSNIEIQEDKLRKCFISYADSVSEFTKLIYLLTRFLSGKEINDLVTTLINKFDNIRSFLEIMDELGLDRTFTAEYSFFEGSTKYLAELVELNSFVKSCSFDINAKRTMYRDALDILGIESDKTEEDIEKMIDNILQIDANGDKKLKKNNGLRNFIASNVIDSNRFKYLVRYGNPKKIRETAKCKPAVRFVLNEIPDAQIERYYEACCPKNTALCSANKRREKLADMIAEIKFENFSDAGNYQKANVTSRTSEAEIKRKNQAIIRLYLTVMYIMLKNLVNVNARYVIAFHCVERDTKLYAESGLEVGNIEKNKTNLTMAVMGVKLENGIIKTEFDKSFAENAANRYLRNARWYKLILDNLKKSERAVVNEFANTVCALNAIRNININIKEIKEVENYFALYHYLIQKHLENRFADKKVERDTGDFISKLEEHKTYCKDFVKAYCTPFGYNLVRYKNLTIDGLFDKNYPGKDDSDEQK

B1: target 1 C6A,U10C (mixed)
RNA 1: CACCCGUGCAAAAAUGCAGGGGUCUAAAACUGAGCGGAUAACCUCUCUAUGG
RNA 2: GGGAAUGGAUCCACAUCUACGAAUUCGUACCAUAGAGAGGUCAUCAGCUCACCGAGAUCGGAAGAGCACACGU
B2: target 1 G12C,A14C (mixed)
RNA 1: B1 RNA 1
RNA 2: B1 RNA 2 with A38C, G40C, C42U, A46C
B3: target 1 insA 3' of 21,insU 3' of 1 (mixed)
RNA 1: B1 RNA 1
RNA 2: GGGAAUGGAUCCACAUCUACGAAUUCGUACCAAUAGAGAGGUUAUCCGCUCAUCCGAGAUCGGAAGAGCACACGU
B4: target 1 U8G,G15A (mixed)
RNA 1: B1 RNA 1
RNA 2: B1 RNA 2 with G37A, C42U, U44G, A46C
B5: target 1 C4G,U10C (mixed)
RNA 1: B1 RNA 1
RNA 2: B1 RNA 2 with A46C, C48G
B6: target 1 complement block 2-10 (mixed)
RNA 1: B1 RNA 1
RNA 2: B1 RNA 2 with C42A, A43U, U44A, C45G, A46G, G47C, C48G, U49A, C50G
B7: target 1 U19C,A20G (mixed)
RNA 1: B1 RNA 1
RNA 2: B1 RNA 2 with A32G, U33C, C42U, A46C
B8: target 1 insC 3' of 14,insA 3' of 4 (mixed)
RNA 1: B1 RNA 1
RNA 2: GGGAAUGGAUCCACAUCUACGAAUUCGUACCAUAGAGACGGUUAUCCGCAUCACCGAGAUCGGAAGAGCACACGU
B9: target 1 insC 3' of 13,insU 3' of 6 (mixed)
RNA 1: B1 RNA 1
RNA 2: B8 RNA 2 with C39G, G40C, G48U, C49G, A50C
B10: target 1 insU 3' of 21,insA 3' of 4 (mixed)
RNA 1: B1 RNA 1
RNA 2: B3 RNA 2 with A32U, U50A, C51U, A52C, U53A
B11: target 1 U11A,C22U (mixed)
RNA 1: B1 RNA 1
RNA 2: B1 RNA 2 with C30U, U41A, C42U, A46C
B12: target 1 insG 3' of 9,insU 3' of 7 (mixed)
RNA 1: B1 RNA 1
RNA 2: B8 RNA 2 with C39G, G41U, U43A, A44G, C47U, G48C, C49G, A50C
B13: target 1 insG 3' of 9,insC 3' of 8 (mixed)
RNA 1: B1 RNA 1
RNA 2: B8 RNA 2 with C39G, G41U, U43A, A44G, G48C, C49G, A50C
B14: target 1 insA 3' of 22,insU 3' of 22 (mixed)
RNA 1: B1 RNA 1
RNA 2: GGGAAUGGAUCCACAUCUACGAAUUCGUACAUCAUAGAGAGGUUAUCCGCUCACCGAGAUCGGAAGAGCACACGU
B15: target 1 insC 3' of 15,insU 3' of 7 (mixed)
RNA 1: B1 RNA 1
RNA 2: B8 RNA 2 with A38C, C39A, C47U, G48C, C49G, A50C
B16: target 1 G15U,G17U (mixed)
RNA 1: B1 RNA 1
RNA 2: B1 RNA 2 with G35U, G37U, C42U, A46C

target: T1, EsCas13d, nuclease-dead; experiment: crRNA (strand 1, pre-loaded); Mg2+; 40 mM Tris-HCl pH 7.5, 150 mM NaCl, 6 mM MgCl2, 1 mM DTT, 0.1% Tween-20, 0.2 mg/ml BSA; 25 C; 10 min per concentration, then washed; settings: tags: His6-TwinStrep-SUMO cleaved; N-terminal SNAP kept (SNAP-Surface 488); label: 3' end held by stalled T7 RNA polymerase

Question: B1 was tested. Which Kd did it give?
Answer: 18.8 ± 1.4 nM

Question: With B2 as the binder, how does the Kd read?
Answer: 89 ± 33 nM

Question: For B3, which Kd is on record?
Answer: 18.5 ± 1.3 nM

Question: With B4 as the binder, how does the Kd read?
Answer: 56 ± 6 nM

Question: How did the Kd turn out when B5 was run?
Answer: 5.15 ± 0.3 nM

Question: For B6, which Kd is on record?
Answer: 13.3 ± 0.6 nM

Question: For B7, which Kd is on record?
Answer: 55 ± 22 nM

Question: How did the Kd turn out when B8 was run?
Answer: 24.3 ± 1.9 nM

Question: B9 was tested. Which Kd did it give?
Answer: 11 ± 0.9 nM

Question: Which Kd does the source give for B10 here?
Answer: 15.6 ± 1.3 nM

Question: B11 was tested. Which Kd did it give?
Answer: 52 ± 16 nM

Question: With B12 as the binder, how does the Kd read?
Answer: 16.4 ± 0.8 nM

Question: For B13, which Kd is on record?
Answer: 29.5 ± 2.9 nM

Question: For B14, which Kd is on record?
Answer: 12.5 ± 1 nM

Question: How did the Kd turn out when B15 was run?
Answer: 17.1 ± 0.9 nM

Question: How did the Kd turn out when B16 was run?
Answer: 86 ± 21 nM
